As usually defined, the EC50 is the concentration giving half of the maximal effect. Broadly, the Kd is the free concentration of one partner at which half of the binding sites on the other are occupied at equilibrium, for simple one-to-one binding. As a reminder, the koff is the rate constant with which the complex falls apart. Broadly, the kon is the second-order rate constant of association.

Substitutions are numbered along the chain they refer to. Read-outs that look alike come from different tables or passages of the source.

For assay [1], the target named is T1, human PD-L1 (human, UniProt Q9NZQ7 19-239).
T1 construct: captured through a His tag in the BLI experiments; also called hPD-L1; B7H1/PDL-1
T1 sequence (Q9NZQ7 19-239 limits assumed): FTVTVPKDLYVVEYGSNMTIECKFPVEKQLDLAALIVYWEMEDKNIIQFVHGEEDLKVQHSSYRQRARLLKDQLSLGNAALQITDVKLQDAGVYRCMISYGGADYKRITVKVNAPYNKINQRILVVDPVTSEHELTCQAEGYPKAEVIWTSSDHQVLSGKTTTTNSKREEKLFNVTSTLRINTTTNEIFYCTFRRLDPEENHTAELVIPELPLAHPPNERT
The assay can be described thus: BLI (Octet), His-tagged human PD-L1 on anti-Penta-HIS biosensor, antibody 500-15.6 nM.
Description: (§1) Finally, the biosensors were incubated for 120 sec in PBS pH 7.2 to obtain the dissociation curves. Kinetic and affinity constants were calculated by global fitting of the association and dissociation data to a 1:1 binding model.

The target in assay [2] is T2, recombinant mouse VISTA (His-tagged) (mouse, UniProt Q9D659 33-191).
T2 construct: also called murine VISTA; mVISTA
T2 sequence (looked up): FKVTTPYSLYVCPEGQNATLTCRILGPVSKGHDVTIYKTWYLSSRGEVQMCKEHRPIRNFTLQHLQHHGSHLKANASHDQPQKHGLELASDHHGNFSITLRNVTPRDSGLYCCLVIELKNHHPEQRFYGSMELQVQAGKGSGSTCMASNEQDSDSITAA
The assay can be described thus: ELISA, plate coated with mouse VISTA; unit nM from the legend paragraph 699.

For assay [3], the target named is T3, recombinant human VISTA (His-tagged) (human, UniProt Q9H7M9 33-194).
T3 construct: bought soluble protein (Sino Biological); also called hVISTA; human VISTA polypeptide
The assay can be described thus: BLI (Octet), 1:1 global fit, human VISTA captured. (In general: Biolayer interferometry detects binding as a change in optical thickness at a sensor tip.)
Description: as §1

For assay [4], the target named is T3, recombinant human VISTA (His-tagged). The assay can be described thus: ELISA, plate coated with human VISTA; unit nM from the legend paragraph 698. In general terms: In an ELISA, binding on a coated surface is turned into a signal by an enzyme label.
The target is the same in assay [5]. As to the kind of experiment: ELISA, plate coated with human VISTA; unit nM from the legend paragraph 699.
Assay [6] deals with T2, recombinant mouse VISTA (His-tagged). The assay can be described thus: BLI (Octet), 1:1 global fit, His-tagged mouse VISTA captured.
Assay [7] deals with T3, recombinant human VISTA (His-tagged). The assay can be described thus: ELISA, plate coated with human VISTA; unit nM from the legend paragraph 697.
The target of assay [8] is T2, recombinant mouse VISTA (His-tagged). As to the kind of experiment: BLI (Octet), 1:1 global fit, mouse VISTA captured.
Description: All measurements were performed at 25° C. with agitation at 1000 rpm. […] Sensograms were referenced for buffer effects and then fitted using the Octet QK384 user software (Pall ForteBio, USA).
Assay [9] addresses T3, recombinant human VISTA (His-tagged). As to the kind of experiment: BLI (Octet), 1:1 global fit, His-tagged human VISTA captured.
The target in assay [10] is T2, recombinant mouse VISTA (His-tagged). The assay can be described thus: BLI (Octet), 1:1 global fit, His-tagged mouse VISTA captured. This is another data set of the same source.
For assay [11] the target is unchanged. The assay can be described thus: ELISA, plate coated with mouse VISTA; unit nM from the legend paragraph 698.
The target is the same in assay [12]. As to the kind of experiment: ELISA, plate coated with mouse VISTA; unit nM from the legend paragraph 697.
Assay [13] deals with T4, human VISTA expressed on cells (human, UniProt Q9H7M9 33-311).
T4 construct: also called HEK293 VISTA O/E; HEK293T or HEK293-6E cells overexpressing human VISTA
The assay can be described thus: flow cytometry, FITC anti-Fc detection; HEK293 VISTA O/E against HEK293. Background: Flow cytometry measures light scatter and fluorescence of single cells or particles in a stream.
Description: (§2) The cells were washed thrice with FACS buffer (PBS with 5 mM EDTA and 0.5% BSA) and resuspended in FITC-conjugated anti-FC antibody (Invitrogen, USA) for 40 min at 2-8° C. Cells were washed again and resuspended in 200 μL of FACS flow buffer (PBS with 5 mM EDTA) for flow cytometric analysis using MACSQuant 10 (Miltenyi Biotec, Germany). After acquisition, all raw data were analyzed using Flowlogic software. Cells were gated using forward and side scatter profile and Median of Fluorescence Intensity (MFI) value was determined for native and overexpressing cell populations.

Assay [14] addresses T3, recombinant human VISTA (His-tagged). The assay can be described thus: competition ELISA: VSIG-3 coated, His-tagged VISTA added with the antibody, anti-His-HRP; blocked ligand VSIG-3.
Description: Briefly, 96-well plates (Nunc, Denmark) were coated with 1 μg/ml of untagged or Fc-tagged VSIG-3 (R&D Systems, USA) in 1×PBS for 16 h at 4° C. […] Plates were subsequently washed three times with TBS-T and incubated with an HRP-conjugated anti-his secondary antibody for 1 h at room temperature. After washing, plates were developed with colorimetric detection substrate Turbo-TMB (Pierce, USA).
Assay [15] has as its target T4, human VISTA expressed on cells. The assay can be described thus: flow cytometry, FITC anti-Fc detection; HEK293 cells overexpressing human VISTA against HEK293 cells without VISTA.
Description: as §2
For assay [16], the target named is T2, recombinant mouse VISTA (His-tagged). The assay can be described thus: ELISA, target protein coated, absorbance 450 nm.
For assay [17], the target named is T3, recombinant human VISTA (His-tagged). The assay can be described thus: ELISA, target protein coated, absorbance 450 nm.
Assay [18] deals with T1, human PD-L1. The assay can be described thus: ELISA, target protein coated, absorbance 450 nm.
Assay [19] concerns the target T2, recombinant mouse VISTA (His-tagged). As to the kind of experiment: ELISA, target protein coated, absorbance 450 nm. This is another data set of the same source.
Assay [20] addresses T3, recombinant human VISTA (His-tagged). As to the kind of experiment: ELISA, target protein coated, absorbance 450 nm. The source holds these as a separate data set.

B1: anti-VISTA clone V4-C1 IgG1 (antibody, V domains shown)
VH: QVQLQESGPGLVKPSDTLSLTCTVSGYSITSDYAWNWIRQTPGKGLEWIGYITYSGYISYNPSLRSRVTISRDTSKNQFSLKLSSVTAADTAVYSCARALYYPWYFDVWGTGTTVTVSS
VL: EIVITQSPATLSLSPGERATLSCRASSSVGYIHWYQQKPGQAPRPLIYATSNRATGIPARFSGSGSGTDNTLTISSLEPEDSAVYYCQQWSSYPPITFGGGTKLEVKR
On to B1, for which, in assay [1], the binding result is reported as “no binding (tested: 500 nM)”. The EC50 in assay [2] is 2.44 nM; in assay [4], 0.042 nM; in assay [5] it was 0.065 nM; in [7] it was 0.0024 nM; in [11], 1.6 nM; in assay [12], 3.1 nM. Also, the Kd in [3] is less than 0.001 nM; in [6], 66.7 nM; in assay [8], 58.5 nM; in assay [9] it was less than 0.001 nM; in assay [10], 60.7 nM. In addition, the koff in assay [3] was less than 1e-07 s⁻¹; in [6], 0.022 s⁻¹; in assay [8] it was 0.0162 s⁻¹; in [9], less than 1e-07 s⁻¹; in assay [10], 0.0147 s⁻¹. Further, the kon turned out to be 391000 M⁻¹ s⁻¹ in [3]; 330000 M⁻¹ s⁻¹ in assay [6]; 277000 M⁻¹ s⁻¹ in [8]; 343000 M⁻¹ s⁻¹ in assay [9]; 243000 M⁻¹ s⁻¹ in [10].

B2: anti-VISTA clone V4-C9 IgG1 (antibody, V domains shown)
VH: B1 VH with I58V
VL: B1 VL with I4L
For B2, the binding result in assay [1] is recorded as “no binding (tested: 500 nM)”. Further, the EC50 in [2] was 0.18 nM; in assay [4], 0.03 nM; in assay [5], 0.107 nM; in assay [7], 0.031 nM; in [11] it was 0.044 nM; in assay [12] it was 0.11 nM. For the same molecule, the Kd in [3] is 0.125 nM; in assay [6], 4.26 nM; in assay [8], 2.88 nM; in assay [9], less than 0.001 nM; in assay [10], 3.81 nM. Moreover, the koff in assay [3] was 5.6e-05 s⁻¹; in assay [6], 0.00067 s⁻¹; in assay [8] it was 0.00104 s⁻¹; in assay [9], less than 1e-07 s⁻¹; in assay [10], 0.00118 s⁻¹. For the same molecule, the kon is 450000 M⁻¹ s⁻¹ in assay [3]; 157000 M⁻¹ s⁻¹ in assay [6]; 361000 M⁻¹ s⁻¹ in [8]; 333000 M⁻¹ s⁻¹ in assay [9]; 311000 M⁻¹ s⁻¹ in [10].

B3: anti-VISTA clone 5M1-A11 IgG1 (antibody, V domains shown)
VH: QVTLKVSGPGILQPSQTLSLTCSFSGFSLSTSGMGVSWIRQPSGKGLEWLAHIYWDDDKRYNPSLKSRLTISKDSSSNQVFLKITSVDTADTATYYCARRLDGYNDPYYFDYWGQGTTLTVSS
VL: DVVMTQTPALMSASPGEKVTMTCSASSSVSYMYWYQQKPRSSPKPWIYLTSNLASGVPARFSGSGSGTSYSLTISSMEAEDAATYYCQQWNSNPYTFGGGTKLEIKR
As for B3, the binding result in assay [13] and in assay [14] was “binds” throughout.

B4: anti-VISTA clone 4M2-C9 IgG1 (antibody, V domains shown)
VH: B3 VH with V6E, S7C
VL: DIVMTQSPSSLSASLGDTVTITCHASQNVNVWLSWYQQKPGNIPKLLIYKASNLHAGVPSRFSGSGSGTGFTLTISSLQPEDIATYYCQQGQSYPLTFGGGTKLEIKR
For B4, in assay [13], the binding result is listed as “binds”.

B5: anti-VISTA clone 1M2-D2 IgG1 (antibody, V domains shown)
VH: EVKVEESGGGLVQPGGSMKLSCAASGFTFSDAWMDWVHQSPEKGLEWVAEIRSKANNHATYYVESVEGRFTISRDDSKSSVFLQVNSLRPEDTGIYYCTRRDGYYFAYWGQGTLVTVSA
VL: DIVLTQSPAIMSASLGEEITLTCSASSSVRDMHWYQQKSGTSPKVLIYNTFNLASGVPSRFSGSGSGTFYSLTISSVEAGDAAAYYCHQWSSYPTFGGGTKLEIKR
As for B5, in assay [13], the binding result is on record as “binds”.

B6: anti-VISTA clone 2M1-B12 IgG1 (antibody)
heavy: not shown
light: DIQMMQSPASLSASVGETVAITCGASENIYGALNWYQRKQGKSPQLLIYGATNLADGMSSRFSGSGSGRQYSLKISSLHPDDVATYYCQNVLSTPYTFGGGTKLEIKRTVAAPSVFIFPPSDEQLKSGTASVVCLLNNFYPREAKVQWKVDNALQSGNSQESVTEQDSKDSTYSLSSTLTLSKADYEKHKVYACEVTHQGLSSPVTKSFNRGEC
In the case of B6, the binding result in assay [13] was “binds”.

B7: anti-VISTA clone 2M1-D2 IgG1 (antibody)
heavy: not shown
light: B6 light with Q3V, M5T
Consider B7, for which the binding result in [13] was “binds”.

B8: anti-VISTA clone 4M2-D9 IgG1 (antibody, V domains shown)
VH: EVQLQESGPGLVKPSQSLSLTCTVTGYSITSDYAWNWIRQFPGNRLEWMGFISYSGFTTYSPSLESRISITRDTSKNQFFLQLISVTTEDTATYYCARNHYGGSYWYFDVWGAGTSVTVSS
VL: DIVMTQSPGSLAVSLGQRATISCRASESVEYYGTSLMQWYLQKPGQPPKLLIYAASNVESGVPDRFRGSGSGTDFSLNIHPVEEDDIAMYFCQQSRKVPWTFGGGTKLEIKR
On to B8, for which, in assay [13], the binding result is “binds”.

B9: anti-VISTA clone 4M2-D5 IgG1 (antibody, V domains shown)
VH: QVQLQQSGAELARPGASVRMSCKASGYTFTSYTMNWVKQRPGQGLEWIGFINPDSDYTTYDQKFKDKATLTADSSSSTAYMQLSSLTYDDSAVYYCTRHSYGNYGDYWGQGTTLTVSS
VL: DIVLTQSPKFLLVSAGDRVTITCKASQSVTNDVAWYQQKPGQSPKLLIYYASSRYTGVPDRFTGSGFGTDFTFTINTVQAEDLAVYFCQQDYSSPYTFGGGTKLEIKR
B9: the binding result in assay [15] is “binds”.

B10: anti-VISTA clone 4M2-A8 IgG1 (antibody, V domains shown)
VH: QVQLQQSGADLARPGASVKMSCKASGYTFIDYTVHWVKQRPGQGLEWIGFINPSNDYTSYNQKFKDKASLTADTSSTTAYMQLSSLTSDDSAVYYCARHSYGNYGDYWGQGTTLTVSS
VL: B9 VL with L4M, S7A, D32G, S53N, N76S
B10: the binding result in assay [13] is “binds”.

B11: anti-VISTA clone 13D5-1 IgG1 (antibody, V domains shown)
VH: QVQLQQSGAELVRPGTSVKISCKASGYTFTNYWLGWVKQRPGHGLEWIGDIYPGGGYTNYNEKFKGKATLTADTSSSTAYMQLSSLTSEDSAVYFCVRSGYYYGSSWYFDVWGAGTTVTVSS
VL: DVLMTQTPLSLPVSLGDQASISCRSSQSIVHSSGNTYLEWYLQKPDQSPKLLIYKVSNRFSGVPDRFSGSGSGTDFTLKISRVEAEDLGVYYCFQGSHVPPTFGGGTKLEIKR
Consider B11, for which the binding result in assay [16], in assay [17] and in assay [18] was “binds” in each case.

B12: anti-VISTA clone 13D5-13 IgG1 (antibody, V domains shown)
VH: B11 VH with T74I, V93D, S99G
VL: B11 VL with I29T, S33I, D46G, G71E
Consider B12, for which the binding result in assay [19] and in [20] was “binds” throughout.
